In patent US8278415B2:
Blank lines part the entries; values can stand above or below the binder they belong to. Positions of bridges follow the written chain, without caps; N, C: chain ends. No end group written: not given here. PEG = not defined here

How the values were obtained:
[1] = molecular target: EGFR on the surface of tumor cells (human) (UniProt P00533)
[2] = molecular target: EGFR on the surface of tumor cells (human) (UniProt P00533); experiment: flow cytometry on A431 cells preincubated with 2 ug EGF, 2 uM bio-P190: avidin complex, 4° C.

IC50 D4 [1]: 120 µg/mL | IC50 D6 [1]: 35 µg/mL
B1: P190-DOXIL (peptide)
peptide: DPCTWEVWGRECLQ
modifications: disulfide 3-12 (inferred); not fully specified (N-terminus); also: inserted into DOXIL liposomes (doxorubicin)

staining over background [2]: 20 fold
B2: Biotinylated-PEGylated P190 (peptide)
peptide: DPCTWEVWGRECLQ-{PEG-biotin}
modifications: disulfide 3-12 (inferred); reading uncertain
